The results in this text go back to the supplement of paper PMC9112550, “Optimization of the antimicrobial peptide Bac7 by deep mutational scanning” (BMC Biology, 2022).
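Also: peptides expressed intracellularly from a pBAD plasmid library in pooled LB shake-flask culture, induced with 0.3% L-arabinose, DNA abundance read by NGS, three biological replicates, DESeq2 with apeglm shrinkage.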

This data set has as its system Escherichia coli TOP10. As to the kind of experiment: shrunken log2 fold change of peptide-encoding DNA abundance (4.5 h post-induction vs induction); higher = less antimicrobial activity (less host growth inhibition). The following applies: time post-induction: 4.5 h; library: site-saturation at positions 5, 18, 19, 20.
For the sequence RRIRERPPRLPRPRPRPRDQPRP, the “shrunken log2 fold change” value is 0.424.
The same measure for RRIRRRPPRLPRPRPRPQLIPRP: -0.0726.
The result for RRIRGRPPRLPRPRPRPQINPRP reads 0.324.
Turning to RRIRRRPPRLPRPRPRPHMRPRP, the “shrunken log2 fold change” value was 0.29.
The result for RRIRDRPPRLPRPRPRPSGCPRP reads 0.0451; that for RRIRSRPPRLPRPRPRPDWGPRP, -0.128.
The same measure for RRIRIRPPRLPRPRPRPSNQPRP: -1.08; for RRIRCRPPRLPRPRPRPAFDPRP: 0.253.
The result for RRIRTRPPRLPRPRPRPFIEPRP reads -0.553; that for RRIRNRPPRLPRPRPRPGCSPRP, 0.121.
Turning to RRIRYRPPRLPRPRPRPMHSPRP, the “shrunken log2 fold change” value is -1.02.
Take RRIRWRPPRLPRPRPRPLPDPRP: the “shrunken log2 fold change” value was found to be 0.672.
For the sequence RRIRFRPPRLPRPRPRPNNGPRP, the “shrunken log2 fold change” value is -0.151.
The result for RRIRPRPPRLPRPRPRPRGCPRP reads 0.251.
The same measure for RRIRTRPPRLPRPRPRPNGAPRP: -0.0908.
The result for RRIRSRPPRLPRPRPRPHHCPRP reads -0.0623; that for RRIRFRPPRLPRPRPRPQMGPRP, -0.209; that for RRIRSRPPRLPRPRPRPFTHPRP, -0.0568.
With RRIRDRPPRLPRPRPRPTLQPRP, the “shrunken log2 fold change” value was determined as 0.981.
The same measure for RRIRRRPPRLPRPRPRPQSWPRP: 0.519; for RRIRYRPPRLPRPRPRPPPIPRP: 0.0596.
The result for RRIRFRPPRLPRPRPRPEDPPRP reads 0.379; that for RRIRWRPPRLPRPRPRPQSCPRP, 0.0975; that for RRIRKRPPRLPRPRPRPVPCPRP, 0.0663.
The same measure for RRIRRRPPRLPRPRPRPMYDPRP: -0.267; for RRIRPRPPRLPRPRPRPLLHPRP: 0.0277.
For RRIRVRPPRLPRPRPRPIFKPRP, the “shrunken log2 fold change” value was -0.0901.
The result for RRIRLRPPRLPRPRPRPETYPRP reads -0.215; that for RRIRIRPPRLPRPRPRPQWQPRP, -0.182.
The same measure for RRIRERPPRLPRPRPRPTKQPRP: -0.275; for RRIRKRPPRLPRPRPRPHHWPRP: 0.706.
The result for RRIRARPPRLPRPRPRPHQEPRP reads 0.568; that for RRIRTRPPRLPRPRPRPLGIPRP, -0.638; that for RRIRRRPPRLPRPRPRPTSPPRP, 0.225.
As to RRIRYRPPRLPRPRPRPSSAPRP, the “shrunken log2 fold change” value is -0.197.
The same measure for RRIRTRPPRLPRPRPRPGKTPRP: -0.0222.
On to RRIRTRPPRLPRPRPRPMIVPRP, for which the “shrunken log2 fold change” value is -0.158.
The result for RRIRARPPRLPRPRPRPIGVPRP reads 0.892; that for RRIRTRPPRLPRPRPRPPQSPRP, 0.441.
The result for RRIRLRPPRLPRPRPRPIAVPRP reads -0.16; that for RRIRYRPPRLPRPRPRPQGPPRP, -0.0382.
The result for RRIRLRPPRLPRPRPRPPSQPRP reads 0.756.
With RRIRYRPPRLPRPRPRPPRKPRP, the “shrunken log2 fold change” value stood at 0.319.
The same measure for RRIRNRPPRLPRPRPRPRKKPRP: 0.163; for RRIRERPPRLPRPRPRPCSGPRP: -0.434.
The result for RRIRNRPPRLPRPRPRPQWQPRP reads -0.0605; that for RRIRQRPPRLPRPRPRPFKWPRP, -0.185.
The result for RRIRWRPPRLPRPRPRPEYQPRP reads 0.0269.
In the case of RRIRRRPPRLPRPRPRPDYTPRP, the “shrunken log2 fold change” value was -0.0883.
The result for RRIRNRPPRLPRPRPRPTGKPRP reads -0.0851; that for RRIRARPPRLPRPRPRPIDFPRP, 0.125.
The result for RRIRFRPPRLPRPRPRPSICPRP reads -0.636; that for RRIRDRPPRLPRPRPRPARWPRP, 0.824; that for RRIRIRPPRLPRPRPRPNALPRP, -0.245.
As for RRIRFRPPRLPRPRPRPAWEPRP, the “shrunken log2 fold change” value turned out to be 0.62.
The result for RRIRHRPPRLPRPRPRPGKNPRP reads -0.0444.
The same measure for RRIRARPPRLPRPRPRPHKEPRP: 0.131; for RRIRARPPRLPRPRPRPYARPRP: -0.118; for RRIRKRPPRLPRPRPRPSGHPRP: -0.0496.
The same measure for RRIRDRPPRLPRPRPRPRSLPRP: -0.0214.
RRIRPRPPRLPRPRPRPTWAPRP: the “shrunken log2 fold change” value turned out to be 0.381.
The result for RRIRCRPPRLPRPRPRPYHYPRP reads -0.364.
The same measure for RRIRSRPPRLPRPRPRPQKHPRP: -0.106; for RRIRFRPPRLPRPRPRPIFSPRP: -0.341; for RRIRFRPPRLPRPRPRPKFKPRP: -0.238.
The result for RRIRFRPPRLPRPRPRPMACPRP reads -0.00146; that for RRIRDRPPRLPRPRPRPAYQPRP, -0.381; that for RRIRIRPPRLPRPRPRPTRGPRP, 0.0292.
As to RRIRTRPPRLPRPRPRPQSCPRP, the “shrunken log2 fold change” value worked out at 0.057.
The result for RRIRHRPPRLPRPRPRPRCAPRP reads 0.189; that for RRIRKRPPRLPRPRPRPPREPRP, 0.689.
The same measure for RRIRFRPPRLPRPRPRPKVLPRP: -0.128; for RRIRMRPPRLPRPRPRPWRQPRP: 0.331; for RRIRGRPPRLPRPRPRPHYSPRP: -0.661.
Regarding RRIRFRPPRLPRPRPRPQEWPRP, the “shrunken log2 fold change” value is -0.149.
The result for RRIRERPPRLPRPRPRPAVFPRP reads 0.154.
The result for RRIRKRPPRLPRPRPRPVLNPRP reads 0.0304.
The result for RRIRCRPPRLPRPRPRPTKRPRP reads 0.0767; that for RRIRERPPRLPRPRPRPLAEPRP, 0.17.
For the sequence RRIRYRPPRLPRPRPRPSVYPRP, the “shrunken log2 fold change” value is -0.888.
On to RRIRTRPPRLPRPRPRPASIPRP, for which the “shrunken log2 fold change” value is -0.13.
The result for RRIRMRPPRLPRPRPRPRHLPRP reads -0.0764; that for RRIRERPPRLPRPRPRPIRNPRP, -0.343.
The same measure for RRIRMRPPRLPRPRPRPCAMPRP: 0.424; for RRIRTRPPRLPRPRPRPYIYPRP: -0.706.
For RRIRLRPPRLPRPRPRPQVGPRP, the “shrunken log2 fold change” value is -0.203.
Take RRIRQRPPRLPRPRPRPVVAPRP: the “shrunken log2 fold change” value came to 0.174.
The same measure for RRIRERPPRLPRPRPRPPMAPRP: 0.149.
The same measure for RRIRYRPPRLPRPRPRPQMYPRP: -0.286; for RRIRDRPPRLPRPRPRPCSVPRP: -0.0368; for RRIRGRPPRLPRPRPRPCMNPRP: 0.104.
The result for RRIRMRPPRLPRPRPRPPPKPRP reads 2.03.
RRIRERPPRLPRPRPRPGPQPRP: the “shrunken log2 fold change” value turned out to be 0.231.
The same measure for RRIRWRPPRLPRPRPRPDYHPRP: -0.219.
The same measure for RRIRARPPRLPRPRPRPEFTPRP: 0.475; for RRIRYRPPRLPRPRPRPCGFPRP: -0.241.
The result for RRIRGRPPRLPRPRPRPHCRPRP reads 0.376; that for RRIRMRPPRLPRPRPRPGFDPRP, 0.908.
On to RRIRRRPPRLPRPRPRPCLRPRP, for which the “shrunken log2 fold change” value was -0.0202.
Take RRIRARPPRLPRPRPRPIACPRP: the “shrunken log2 fold change” value was 0.0285.
The same measure for RRIRMRPPRLPRPRPRPGFMPRP: 0.0795; for RRIRMRPPRLPRPRPRPLPRPRP: 2.48; for RRIRTRPPRLPRPRPRPCRLPRP: 0.0337.
Take RRIRTRPPRLPRPRPRPKGGPRP: the “shrunken log2 fold change” value amounted to 0.279.
The result for RRIRYRPPRLPRPRPRPMYPPRP reads -0.00192; that for RRIRHRPPRLPRPRPRPAISPRP, -0.121; that for RRIRQRPPRLPRPRPRPLTGPRP, -0.0104.
The same measure for RRIRWRPPRLPRPRPRPDAFPRP: 0.0334; for RRIRMRPPRLPRPRPRPGWEPRP: 0.888; for RRIRHRPPRLPRPRPRPAVNPRP: -0.0508.
The same measure for RRIRSRPPRLPRPRPRPYVMPRP: -0.653; for RRIRVRPPRLPRPRPRPSHMPRP: -0.585.
As to RRIRNRPPRLPRPRPRPHRTPRP, the “shrunken log2 fold change” value was -0.827.
The result for RRIRVRPPRLPRPRPRPMRLPRP reads 0.617; that for RRIRTRPPRLPRPRPRPKSDPRP, -0.146.
RRIRNRPPRLPRPRPRPGWEPRP: the “shrunken log2 fold change” value turned out to be 1.72.
The same measure for RRIRARPPRLPRPRPRPSLHPRP: 0.162; for RRIRQRPPRLPRPRPRPGNYPRP: -0.222; for RRIRRRPPRLPRPRPRPEPNPRP: -0.00852.
The result for RRIRCRPPRLPRPRPRPILIPRP reads 1.28.
RRIRGRPPRLPRPRPRPSRTPRP: the “shrunken log2 fold change” value came out at 0.536.
Turning to RRIRWRPPRLPRPRPRPSPFPRP, the “shrunken log2 fold change” value is -0.245.
The same measure for RRIRTRPPRLPRPRPRPNLNPRP: -0.55; for RRIRHRPPRLPRPRPRPFWMPRP: -0.0444; for RRIRDRPPRLPRPRPRPLGLPRP: 0.0955.
